The values that follow come from patent US5633145, “TNFα receptor-derived binding protein” (The Mathilda and Terence Kennedy Institute of Rheumatology, dated 1997).

One experiment addresses recombinant human TNFα (human, UniProt P01375, radioiodinated (125I, Iodogen method) in the radioligand binding assays; unlabelled as competitor and in the cytotoxicity assays). The experiment can be described thus: radioligand binding of 125I-TNFα to COS cells transfected with prTNFR, Scatchard analysis, 4 °C.
Another experiment deals with T1, recombinant human TNFβ (human, UniProt P01374).
T1 sequence: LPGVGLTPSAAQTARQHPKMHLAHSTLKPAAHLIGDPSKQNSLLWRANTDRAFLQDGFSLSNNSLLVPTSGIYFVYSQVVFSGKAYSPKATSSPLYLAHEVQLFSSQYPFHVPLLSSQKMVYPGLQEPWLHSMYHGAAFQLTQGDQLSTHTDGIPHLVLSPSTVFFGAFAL
Briefly: competition with 1 nM 125I-TNFα on COS-7 cells transfected with the TNFR cDNA; competitor 125I-TNFα.

Procedure for recombinant human TNFα: (§1) COS cells transfected with the TNFα receptor cDNA (prTNFR, 1300 bp EcoRI fragment) were incubated for 24 hours and then seeded into six well tissue culture plates (Nunc) at 4.5 ×10^8 cells per well. The cells were incubated for a further 48 hours and then receptor expression was quantitated by radioligand binding for 2 hours at 4° C. […] Binding data was analysed by the method of Scatchard (14).
The resulting plasmid was transfected into COS cells which were analyzed for TNF receptor expression after three days.
Procedure for recombinant human TNFβ: as §1

B1: recombinant human TNFα 55 kD receptor expressed in COS-7 cells from plasmid prTNFR (receptor)
chain: DSVCPQGKYIHPQNNSICCTKCHKGTYLYNDCPGPGQDTDCRECESGSFTASENHLRHCLSCSKCRKEMGQVEISSCTVDRDTVCGCRKNQYRHYWSENLFQCFNCSLCLNGTVHLSCQEKQNTVCTCHAGFFLRENECVSCSNCKKSLECTKLCLPQIENVKGTEDSGTTVLLPLVIFFGLCLLSLLFIGLMYRYQRWKSKLYSIVCGKSTPEKEGELEGTTTKPLAPNPSFSPTPGFTPTLGFSPVPSSTFTSSSTYTPGDCPNFAAPRREVAPPYQGADPILATALASDPIPNPLQKWEDSAHKPQSLDTDDPRTLYAVVENVPPLRWKEF
As to B1, the Ka in the experiment with recombinant human TNFα was 2.5e+09 M⁻¹. The binding result in the experiment with recombinant human TNFβ is listed as “binds”.
